The chains are these.
B1: rG019 antibody (antibody, V domains shown)
VH: QVQLQQSGAELVKPGSSVKISCKASGYTFTRNFMHWIKQQPGNGLEWIGWIYCGDGETEYNQKFNGKATLTADRSSSTAYMELSRLTSEDSAVYFCARGVYGGFAGGYFDFWGQGVMVTVSS
VL: DIQMTQSPSLLSASVGDRVTLNCKASQNIYKNLAWYQQKLGEGPKLLIYDANTLQTGIPSRFSGSGSGSDFTLTISSLQPEDVATYFCQQYYSGWAFGGVTNLELKRA
notes: Rat monoclonal purified from hybridoma; also called rat anti-CDH6 monoclonal antibody clone rG019
B2: rG055 antibody (antibody, V domains shown)
VH: EVQLQESGPGLVRPSQSLSLSCSVTDYSITSNYWGWIRRFPGNKMEWMGYITYSGYTSYNPSLQSRISITRDTSKNQFFLQLNSVTAEDTATYYCARSINHGGYSYVVDAWGPGASVTVSS
VL: DVQMTHSPSYLAASPGESVSISCKTSKNISNYLVWYQQKPGEAYKLLIYSGSTLQSGTPSRFSGSGSGTDFTLTIRSLEPEDFGLYFCQQYYEKPFTFGSGTKLEIKR
notes: Rat monoclonal purified from hybridoma; also called rat anti-CDH6 monoclonal antibody clone rG055
B3: rG061 antibody (antibody, V domains shown)
VH: EVQLQESGPGLVKPSQSLSLTCSVTGYSITTYYWGWIRKFPGNKMEWMGYISYSGRTSYNPSLKSRMSITRDASKNQFFLQLNSVTTDDTATYYCARSPINHGGYWYFDFWGPGTMVTVSS
VL: B2 VL with H6Q, T25A, S26T, N28S, V34A, L46V, F87S, F96L
notes: Rat monoclonal purified from hybridoma; also called rat anti-CDH6 monoclonal antibody clone rG061
B4: rG056 antibody (antibody, V domains shown)
VH: EVQLQESGPGLVKPSQSLSLTCSVTDYSITTYFWGWIRKFPGNKMEWMGYMSYRGGTSYNPSLKSRISITRDTSKNQFFLQLNSVTTEDTATYYCARCPNYGGHSLVFDYWGQGVMVTVSS
VL: DVQMTQSPSSLAASPGESVSISCRATKSIGIYLAWYQQKPGKTFKLLIYSGSTLQSGTPSRFSGSGSGTDFTLTIRSLEPEDFGLYFCQQFYENPFTFGSGTKLEIRR
notes: Rat monoclonal purified from hybridoma; also called rat anti-CDH6 monoclonal antibody clone rG056
B5: H02L02 antibody (antibody, human IgG1, kappa, V domains shown)
VH: EVQLVQSGAEVKKPGASVKVSCKASGYTFTRNFMHWVRQAPGQGLEWMGWIYPGDGETEYNQKFQGRVTITADRSTSTAYMELSSLRSEDTAVYFCARGVYGGFAGGYFDFWGQGTLVTVSS
VL: DIQMTQSPSSLSASVGDRVTITCKASQNIYKNLAWYQQKPGKAPKLLIYDANTLQTGVPSRFSGSGSGSDFTLTISSLQPEDFATYFCQQYYSGWAFGQGTKVEIKR
notes: Humanized IgG1/kappa (hH02 + hL02); also called humanized hG019 antibody H02L02
B6: H01L02 antibody (antibody, human IgG1, kappa, V domains shown)
VH: B5 VH with N61A, R74T, F95Y
VL: B5 VL
notes: Humanized IgG1/kappa (hH01 + hL02); also called humanized hG019 antibody H01L02; labeled H01L02
B7: H04L02 antibody (antibody, human IgG1, kappa, V domains shown)
VH: B5 VH with E1Q, V37I, N61A, I70L, F95Y
VL: B5 VL
notes: Humanized IgG1/kappa (hH04 + hL02); also called humanized hG019 antibody H04L02
B8: H02L03 antibody (antibody, human IgG1, kappa, V domains shown)
VH: B5 VH
VL: B5 VL with P40L, K42E, A43G, S69T, F87Y
notes: Humanized IgG1/kappa (hH02 + hL03); also called humanized hG019 antibody H02L03

Residue numbers refer to the chain shown, from its start.

The target of the first assay is T1, cynomolgus monkey CDH6 (on cells) (cynomolgus monkey, UniProt P55285 54-790 (human entry)).
T1 construct: Expressed from pcDNA3.1-cynoCDH6; also called cynoCDH6
T1 sequence: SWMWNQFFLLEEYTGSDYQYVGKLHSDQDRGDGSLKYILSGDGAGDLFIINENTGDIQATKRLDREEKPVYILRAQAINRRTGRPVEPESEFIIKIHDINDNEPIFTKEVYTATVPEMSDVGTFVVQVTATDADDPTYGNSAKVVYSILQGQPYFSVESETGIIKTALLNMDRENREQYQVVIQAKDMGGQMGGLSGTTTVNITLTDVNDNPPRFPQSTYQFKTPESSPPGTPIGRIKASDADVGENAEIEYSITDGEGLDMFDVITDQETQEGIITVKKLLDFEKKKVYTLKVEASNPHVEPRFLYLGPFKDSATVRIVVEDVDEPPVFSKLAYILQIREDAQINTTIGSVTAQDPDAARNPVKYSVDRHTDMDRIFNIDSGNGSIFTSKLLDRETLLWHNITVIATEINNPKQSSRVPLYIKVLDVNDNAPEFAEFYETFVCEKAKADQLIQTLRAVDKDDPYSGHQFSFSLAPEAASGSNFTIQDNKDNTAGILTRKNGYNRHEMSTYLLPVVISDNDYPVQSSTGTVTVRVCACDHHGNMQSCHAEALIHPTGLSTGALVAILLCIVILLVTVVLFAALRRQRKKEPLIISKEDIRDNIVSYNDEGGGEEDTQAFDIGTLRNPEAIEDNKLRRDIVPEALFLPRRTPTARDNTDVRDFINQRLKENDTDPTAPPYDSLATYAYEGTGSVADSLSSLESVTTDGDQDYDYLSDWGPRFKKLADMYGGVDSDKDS
Nature of the assay: Cell-ELISA and flow cytometry screening of hybridoma supernatants on transfected cells. As to the method:
A coloring reaction was carried out with occasional stirring. Thereafter, 1 M HCl was added to the plate (100 μL/well) to terminate the coloring reaction, followed by measurement of the absorbance at 490 nm using a plate reader (ENVISION: PerkinElmer, Inc.).
The binding specificity to cynomolgus monkey CDH6 of an antibody produced from the human CDH6- and cynomolgus monkey CDH6-binding antibody-producing hybridomas that had been selected by Cell-ELISA in Example 1)-4 was further confirmed by flow cytometry. […] Thereafter, the cells were suspended by the addition of the culture supernatant from each hybridoma. The cells were left standing at 4° C. for 1 hour. The cells were washed twice with PBS supplemented with 5% FBS, and thereafter, the cells were suspended by the addition of Anti-Rat IgG FITC conjugate (Sigma-Aldrich Co. LLC) that had been 500-fold diluted with PBS supplemented with 5% FBS. The cells were left standing at 4° C. for 1 hour. The cells were washed twice with PBS supplemented with 5% FBS, and then re-suspended in PBS supplemented with 5% FBS and 2 μg/ml 7-aminoactinomycin D (Molecular Probes, Inc.), followed by detection using a flow cytometer (FC500; Beckman Coulter, Inc.). The data was analyzed using FlowJo (Tree Star, Inc.). After dead cells were removed from analysis by gating out 7-aminoactinomycin D-positive cells, a histogram of the FITC fluorescence intensity of live cells was generated.
As to B1, the binding result was “binds”.

For the molecule B2, the binding result is listed as “binds”.

As to B3, the binding result is recorded as “binds”.

Regarding B4, the binding result is “binds”.

A further assay concerns the target T2, human CDH6 (full-length, on cells) (human, UniProt P55285 54-790).
T2 construct: also called hCDH6; full-length hCDH6
T2 sequence: T1 sequence with H300Y, R457H, G707A
Nature of the assay: competition flow cytometry on 786-O/hCDH6 cells; competitor: Alexa 488-labeled H01L02 at 5 nM; unlabeled antibody varied [lower panel]. On the procedure:
Thereafter, the cells were suspended by the addition of labeled NOV0712 or labeled H01L02 (final concentration: 5 nM) and, further, the addition of each of the 4 humanized hG019 antibodies (clone Nos: H01L02, H02L02, H02L03 and H04L02), which had been prepared in Example 5)-5-3, or the anti-CDH6 antibody NOV0712, which had been prepared in Reference Example 1, or human IgG1 (Calbiochem) as a negative control (final concentration: as shown in the abscissa of FIG. 9). The cells were left standing at 4° C. for 1 hour. Thereafter, the cells were washed twice with PBS supplemented with 5% FBS, followed by detection using a flow cytometer (Canto II; BD Biosciences). The data was analyzed using FlowJo (Tree Star, Inc.). The abscissa depicts the final concentration of the added unlabeled antibody, and the ordinate depicts the amount of the antibody bound based on mean fluorescence intensity. When unlabeled NOV0712 is added to cells supplemented with labeled NOV0712, the amount of the labeled antibody bound is decreased by replacement with the unlabeled antibody in an addition concentration-dependent manner because they compete with each other for binding to the same epitope. […] Likewise, when each of the 4 unlabeled humanized hG019 antibodies is added to cells supplemented with labeled H01L02, the amount of the labeled antibody bound is decreased by replacement with the unlabeled antibody in an addition concentration-dependent manner because they compete with each other for binding to the same epitope.
(In general: In flow cytometry, cells or beads pass a laser one at a time.)
In the case of B5, the “IC50 (read off the curve)” value was approximately 3 nM.

For the molecule B6, the “IC50 (read off the curve)” value was approximately 5 nM.

Consider B7, for which the “IC50 (read off the curve)” value was approximately 10 nM.

Regarding B8, the “IC50 (read off the curve)” value was approximately 10 nM.

Values taken from patent publication US20200171163A1 (Daiichi Sankyo, published 2020).
